Measured values as given in US20140314744A1.

Molecular target: Recombinant human Fc-tagged MCAM IgG1-2A (human) (UniProt P43121)
Assay: SPR (Biacore T200), steady state, MCAM IgG1-2A captured by anti-Fc IgG, laminin in solution

Recombinant human Fc-tagged MCAM IgG1-2A (human), sequence (P43121 19-242): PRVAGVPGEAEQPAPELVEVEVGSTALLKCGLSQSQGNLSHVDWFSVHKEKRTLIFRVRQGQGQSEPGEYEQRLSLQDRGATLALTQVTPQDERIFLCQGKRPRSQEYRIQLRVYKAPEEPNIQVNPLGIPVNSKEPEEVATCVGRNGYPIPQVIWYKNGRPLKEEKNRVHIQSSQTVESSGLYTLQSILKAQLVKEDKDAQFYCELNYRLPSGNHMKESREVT

**Q.** “Recombinant human laminin 411 (Biolamina) (from UniProt Q16363 25-1823; P07942 22-1786; P11047 34-1609) (ligand)” was tested. Which Kd did it give?
**A.** 66 nM
